In the supplement of paper PMC11316812:
± gives the standard deviation of the averaged measurements.

Legend:
hTERT-HMEC = assay: percentage of EdU-negative (G0-arrested) nuclei per well, 72 h; higher = more G0 arrest; conditions: reference: sequence is the full UniProt precursor, the tested protein was the secreted form or ectodomain
MCF7 = assay: as above; conditions: reference: sequence is the full UniProt precursor, the tested protein was the secreted form or ectodomain
[1] = protein concentration 0.03125 µM
[2] = protein concentration 0.3125 µM
[3] = protein concentration 0.0225 µM
[4] = protein concentration 0.0357143 µM
[5] = protein concentration 0.357143 µM
[6] = protein concentration 0.0135 µM
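Also: secreted proteins added to cultured cells, EdU pulse at the end, nuclei found by Hoechst imaging, EdU status from nuclear versus surrounding ring intensity ratio, PBS as neutral control.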

Sequence: MWLGRRALCALVLLLACASLGLLYASTRDAPGLRLPLAPWAPPQSPRRPELPDLAPEPRYAHIPVRIKEQVVGLLAWNNCSCESSGGGLPLPFQKQVRAIDLTKAFDPAELRAASATREQEFQAFLSRSQSPADQLLIAPANSPLQYPLQGVEVQPLRSILVPGLSLQAASGQEVYQVNLTASLGTWDVAGEVTGVTLTGEGQADLTLVSPGLDQLNRQLQLVTYSSRSYQTNTADTVRFSTEGHEAAFTIRIRHPPNPRLYPPGSLPQGAQYNISALVTIATKTFLRYDRLRALITSIRRFYPTVTVVIADDSDKPERVSGPYVEHYLMPFGKGWFAGRNLAVSQVTTKYVLWVDDDFVFTARTRLERLVDVLERTPLDLVGGAVREISGFATTYRQLLSVEPGAPGLGNCLRQRRGFHHELVGFPGCVVTDGVVNFFLARTDKVREVGFDPRLSRVAHLEFFLDGLGSLRVGSCSDVVVDHASKLKLPWTSRDAGAETYARYRYPGSLDESQMAKHRLLFFKHRLQCMTSQ
- percentage of EdU-negative (hTERT-HMEC; [1]): 5.346 ± 0.02%
- percentage of EdU-negative (hTERT-HMEC; [2]): 5.55 ± 0.9%
- percentage of EdU-negative (MCF7; [1]): 24.7 ± 5.6%
- percentage of EdU-negative (MCF7; [2]): 27 ± 3.4%

Sequence: MWLLLTLSFLLASTAAQDGDKLLEGDECAPHSQPWQVALYERGRFNCGASLISPHWVLSAAHCQSRFMRVRLGEHNLRKRDGPEQLRTTSRVIPHPRYEARSHRNDIMLLRLVQPARLNPQVRPAVLPTRCPHPGEACVVSGWGLVSHNEPGTAGSPRSQVSLPDTLHCANISIISDTSCDKSYPGRLTNTMVCAGAEGRGAESCEGDSGGPLVCGGILQGIVSWGDVPCDNTTKPGVYTKVCHYLEWIRETMKRN [Q9H2R5]
- percentage of EdU-negative (hTERT-HMEC; [3]): 5.58 ± 0.041%
- percentage of EdU-negative (hTERT-HMEC; protein concentration 0.225 µM): 5.86 ± 1.2%
- percentage of EdU-negative (MCF7; [3]): 22.4 ± 2%
- percentage of EdU-negative (MCF7; protein concentration 0.225 µM): 25.76 ± 0.13%

Sequence: MWLLPALLLLCLSGCLSLKGPGSVTGTAGDSLTVWCQYESMYKGYNKYWCRGQYDTSCESIVETKGEEKVERNGRVSIRDHPEALAFTVTMQNLNEDDAGSYWCKIQTVWVLDSWSRDPSDLVRVYVSPAITTPRRTTHPATPPIFLVVNPGRNLSTGEVLTQNSGFRLSSPHFLLVVLLKLPLLLSMLGAVFWVNRPQWAPPGR [Q496F6]
- percentage of EdU-negative (hTERT-HMEC; [3]): 5.54 ± 0.7%
- percentage of EdU-negative (hTERT-HMEC; protein concentration 0.225 µM): 5.97 ± 1.6%
- percentage of EdU-negative (MCF7; [3]): 23.3 ± 1.9%
- percentage of EdU-negative (MCF7; protein concentration 0.225 µM): 26.6 ± 0.81%

Sequence: MWLLVSVILISRISSVGGEAMFCDFPKINHGILYDEEKYKPFSQVPTGEVFYYSCEYNFVSPSKSFWTRITCAEEGWSPTPKCLRLCFFPFVENGHSESSGQTHLEGDTVQIICNTGYRLQNNENNISCVERGWSTPPKCRSTISAEKCGPPPPIDNGDITSFLLSVYAPGSSVEYQCQNLYQLEGNNQITCRNGQWSEPPKCLDPCVISQEIMEKYNIKLKWTNQQKLYSRTGDIVEFVCKSGYHPTKSHSFRAMCQNGKLVYPSCEEK
- percentage of EdU-negative (hTERT-HMEC; [4]): 5.7 ± 0.61%
- percentage of EdU-negative (hTERT-HMEC; [5]): 17.5 ± 3.6%
- percentage of EdU-negative (MCF7; [4]): 26.5 ± 2.9%
- percentage of EdU-negative (MCF7; [5]): 27.9 ± 1.9%

Sequence: MWLLVSVILISRISSVGGEATFCDFPKINHGILYDEEKYKPFSQVPTGEVFYYSCEYNFVSPSKSFWTRITCTEEGWSPTPKCLRLCFFPFVENGHSESSGQTHLEGDTVQIICNTGYRLQNNENNISCVERGWSTPPKCRSTDTSCVNPPTVQNAHILSRQMSKYPSGERVRYECRSPYEMFGDEEVMCLNGNWTEPPQCKDSTGKCGPPPPIDNGDITSFPLSVYAPASSVEYQCQNLYQLEGNKRITCRNGQWSEPPKCLHPCVISREIMENYNIALRWTAKQKLYLRTGESAEFVCKRGYRLSSRSHTLRTTCWDGKLEYPTCAKR
- percentage of EdU-negative (hTERT-HMEC; [6]): 5.26 ± 0.45%
- percentage of EdU-negative (hTERT-HMEC; protein concentration 0.135 µM): 5.53 ± 0.48%
- percentage of EdU-negative (MCF7; [6]): 25.1 ± 1.9%
- percentage of EdU-negative (MCF7; protein concentration 0.135 µM): 25.3 ± 0.89%

Sequence: MWLPRVSSTAVTALLLAQTFLLLFLVSRPGPSSPAGGEARVHVLVLSSWRSGSSFVGQLFNQHPDVFYLMEPAWHVWTTLSQGSAATLHMAVRDLVRSVFLCDMDVFDAYLPWRRNLSDLFQWAVSRALCSPPACSAFPRGAISSEAVCKPLCARQSFTLAREACRSYSHVVLKEVRFFNLQVLYPLLSDPALNLRIVHLVRDPRAVLRSREQTAKALARDNGIVLGTNGTWVEADPGLRVVREVCRSHVRIAEAATLKPPPFLRGRYRLVRFEDLAREPLAEIRALYAFTGLSLTPQLEAWIHNITHGSGPGARREAFKTSSRNALNVSQAWRHALPFAKIRRVQELCAGALQLLGYRPVYSEDEQRNLALDLVLPRGLNGFTWASSTASHPRN [Q9GZX3]
- percentage of EdU-negative (hTERT-HMEC; [3]): 5.21 ± 0.9%
- percentage of EdU-negative (hTERT-HMEC; protein concentration 0.225 µM): 23.2 ± 3.6%
- percentage of EdU-negative (MCF7; [3]): 24.3 ± 0.37%
- percentage of EdU-negative (MCF7; protein concentration 0.225 µM): 31 ± 0.51%

Sequence: MWLRAFILATLSASAAWGHPSSPPVVDTVHGKVLGKFVSLEGFAQPVAIFLGIPFAKPPLGPLRFTPPQPAEPWSFVKNATSYPPMCTQDPKAGQLLSELFTNRKENIPLKLSEDCLYLNIYTPADLTKKNRLPVMVWIHGGGLMVGAASTYDGLALAAHENVVVVTIQYRLGIWGFFSTGDEHSRGNWGHLDQVAALRWVQDNIASFGGNPGSVTIFGESAGGESVSVLVLSPLAKNLFHRAISESGVALTSVLVKKGDVKPLAEQIAITAGCKTTTSAVMVHCLRQKTEEELLETTLKMKFLSLDLQGDPRESQPLLGTVIDGMLLLKTPEELQAERNFHTVPYMVGINKQEFGWLIPMQLMSYPLSEGQLDQKTAMSLLWKSYPLVCIAKELIPEATEKYLGGTDDTVKKKDLFLDLIADVMFGVPSVIVARNHRDAGAPTYMYEFQYRPSFSSDMKPKTVIGDHGDELFSVFGAPFLKEGASEEEIRLSKMVMKFWANFARNGNPNGEGLPHWPEYNQKEGYLQIGANTQAAQKLKDKEVAFWTNLFAKKAVEKPPQTEHIEL
- percentage of EdU-negative (hTERT-HMEC; [4]): 4.96 ± 0.78%
- percentage of EdU-negative (hTERT-HMEC; [5]): 6.05 ± 0.03%
- percentage of EdU-negative (MCF7; [4]): 23.32 ± 0.21%
- percentage of EdU-negative (MCF7; [5]): 24.5 ± 1.9%
